Measured values as given in paper PMC3285272 (Cell, 2012).

Biological target: T1, γζ-COP core complex (bovine γ-COP 1–355 plus ζ-COP 1–153) (B. taurus, UniProt P53620 1-355; P35604 1-153)
T1 sequence (looked up) 1: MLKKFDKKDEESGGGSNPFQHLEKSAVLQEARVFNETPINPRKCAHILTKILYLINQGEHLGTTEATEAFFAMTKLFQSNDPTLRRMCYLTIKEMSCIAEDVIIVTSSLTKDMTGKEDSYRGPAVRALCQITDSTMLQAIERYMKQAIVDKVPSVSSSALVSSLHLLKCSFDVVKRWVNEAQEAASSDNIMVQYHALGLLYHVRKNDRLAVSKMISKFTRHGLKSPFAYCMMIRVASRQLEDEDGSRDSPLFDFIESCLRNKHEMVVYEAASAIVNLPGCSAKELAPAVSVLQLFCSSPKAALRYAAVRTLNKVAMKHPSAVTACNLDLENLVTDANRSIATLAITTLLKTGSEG
T1 sequence (looked up) 2: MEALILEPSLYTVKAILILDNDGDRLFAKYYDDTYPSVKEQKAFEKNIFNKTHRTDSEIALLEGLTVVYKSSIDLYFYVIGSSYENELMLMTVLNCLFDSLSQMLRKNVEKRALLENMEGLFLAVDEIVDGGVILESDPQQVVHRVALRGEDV
Test: pull-down

B1: S. cerevisiae Arf1 (residues 18–181) with a C-terminal GST tag (domain or fragment, UniProt P11076 18-181, looked up)
chain: MRILMVGLDGAGKTTVLYKLKLGEVITTIPTIGFNVETVQYKNISFTVWDVGGQDRIRSLWRHYYRNTEGVIFVVDSNDRSRIGEAREVMQRMLNEDELRNAAWLVFANKQDLPEAMSAAEITEKLGLHSIRNRPWFIQATCATSGEGLYEGLEWLSNSLKNST
binding result: binds
